Experiment [1] concerns the target cynomolgus AXL extracellular domain transiently expressed on CHO-S cells (cynomolgus). Kind of experiment: flow cytometry, serial dilution on CHO-S cells transiently expressing cynomolgus AXL ECD, AF647 anti-human IgG secondary, GeoMean (RL1-H).
In experiment [2] the target is human AXL extracellular domain transiently expressed on CHO-S cells (human) (UniProt P30530). Kind of experiment: flow cytometry, serial dilution on CHO-S cells transiently expressing human AXL ECD, AF647 anti-human IgG secondary, GeoMean (RL1-H).
human AXL extracellular domain transiently expressed on CHO-S cells (human), sequence (P30530 26-451 limits assumed): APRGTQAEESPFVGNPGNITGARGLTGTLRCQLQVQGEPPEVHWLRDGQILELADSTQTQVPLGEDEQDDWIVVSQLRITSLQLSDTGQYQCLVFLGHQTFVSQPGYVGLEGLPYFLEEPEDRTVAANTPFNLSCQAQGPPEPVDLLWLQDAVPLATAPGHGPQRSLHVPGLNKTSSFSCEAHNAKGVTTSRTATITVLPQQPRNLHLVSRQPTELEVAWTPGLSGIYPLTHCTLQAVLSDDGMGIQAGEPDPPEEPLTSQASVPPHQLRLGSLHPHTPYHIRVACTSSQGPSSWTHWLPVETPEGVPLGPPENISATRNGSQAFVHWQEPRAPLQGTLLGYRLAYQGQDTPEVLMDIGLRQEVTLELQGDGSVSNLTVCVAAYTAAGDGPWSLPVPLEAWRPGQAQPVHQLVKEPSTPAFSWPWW
Experiment [3] concerns the target His-tagged human AXL extracellular domain (recombinant) (human) (UniProt P30530). Kind of experiment: SPR classical sandwich assay (IBIS MX96): 100 nM analyte over AXL-His ECD held by surface-captured 23203-1; white cell = sandwiching.
Experiment [4] shares this target. Briefly: SPR classical sandwich assay (IBIS MX96): 100 nM analyte over AXL-His ECD held by surface-captured 10G5 analogue; white cell = sandwiching.
Experiment [5] has the same target. Kind of experiment: SPR classical sandwich assay (IBIS MX96): 100 nM analyte over AXL-His ECD held by surface-captured 22883; white cell = sandwiching.
Experiment [6] has the same target. Briefly: SPR classical sandwich assay (IBIS MX96): 100 nM analyte over AXL-His ECD held by the surface-captured Control antibody (f2); white cell = sandwiching.
For experiment [7] the target is unchanged. Kind of experiment: SPR classical sandwich assay (IBIS MX96): 100 nM analyte over AXL-His ECD held by surface-captured 22995; white cell = sandwiching.
Experiment [8] shares this target. Briefly: SPR classical sandwich assay (IBIS MX96): 100 nM analyte over AXL-His ECD held by surface-captured YW327.6S2 IgG1-LALA analogue; grey cell = blocked (self).

His-tagged human AXL extracellular domain (recombinant) (human), sequence (P30530 26-451): as the sequence (P30530 26-451 limits assumed) above
YW327.6S2 IgG1-LALA analogue (Genentech) (antibody), sequence (VH): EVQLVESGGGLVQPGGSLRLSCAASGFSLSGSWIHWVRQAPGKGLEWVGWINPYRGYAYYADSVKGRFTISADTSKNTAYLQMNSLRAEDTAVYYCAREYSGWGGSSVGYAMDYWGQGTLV
YW327.6S2 IgG1-LALA analogue (Genentech) (antibody), sequence (VL): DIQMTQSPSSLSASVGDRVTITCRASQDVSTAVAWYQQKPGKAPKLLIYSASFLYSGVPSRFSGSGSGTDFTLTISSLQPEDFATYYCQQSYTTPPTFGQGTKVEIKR

For the substance “10G5 IgG1-LALA analogue (BerGenBio) (antibody)”, the EC50 (read off the curve) worked out at 0.008 µg/mL in experiment [1] and 0.006 µg/mL in experiment [2].

Regarding “Ax225 IgG1-LALA analogue (Chugai) (antibody)”, the figures for the EC50 (read off the curve) in experiment [1] and in experiment [2] were 0.05 µg/mL and 0.06 µg/mL, respectively.

On to “YW327.6S2 IgG1-LALA analogue (Genentech) (antibody)”, for which the normalized SPR sandwich response in experiment [3] came to 1.1; in experiment [4], 1.2; in experiment [5], 3.9; in experiment [6] it was 1.3; in experiment [7], 1.1; in experiment [8], 0.
